Reference: patent publication EP4796630A2 (Hugel Inc., dated 2026)
Residue numbers refer to the chain shown, from its start. “And” between values parts separate entries of the source, which are not always exact repeats. Identical values can stand only once. Like-named read-outs stand apart in the source and are kept apart here.

Legend:
[1] = biological target: T1, endogenous SNAP25197 in total cell lysate of BoNT/A-treated N2-42F cells (mouse, UniProt P60879 1-197); assay: sandwich ELISA, plate coated with B4 IgG, lysate of BoNT/A-treated N2-42F cells
T1 construct: range 1-197; also called SNAP25197 captured
T1 sequence (P60879 1-197 limits assumed): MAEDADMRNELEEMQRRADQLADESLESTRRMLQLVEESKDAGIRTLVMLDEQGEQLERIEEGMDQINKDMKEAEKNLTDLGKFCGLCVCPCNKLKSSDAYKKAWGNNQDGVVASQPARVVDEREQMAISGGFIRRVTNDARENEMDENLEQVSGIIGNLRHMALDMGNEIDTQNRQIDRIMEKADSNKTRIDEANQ

[2] = biological target: T2, recombinant GST-SNAP25FL (UniProt P60880 1-206); assay: BLI (Octet Red96), IgG on AMC biosensor, GST-SNAP25FL as analyte; from tentative Kdis
T2 construct: range 1-206; also called SNAP25 206; full-length SNAP25; not shown: GST tag
T2 sequence (P60880 whole entry): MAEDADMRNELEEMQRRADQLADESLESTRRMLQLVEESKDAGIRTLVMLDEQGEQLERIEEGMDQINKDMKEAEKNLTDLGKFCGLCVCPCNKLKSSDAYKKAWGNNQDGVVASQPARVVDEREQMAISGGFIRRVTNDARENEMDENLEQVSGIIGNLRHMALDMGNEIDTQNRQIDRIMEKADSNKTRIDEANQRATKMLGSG

[3] = biological target: T2, recombinant GST-SNAP25FL; assay: BLI (Octet Red96), IgG on AMC biosensor, GST-SNAP25FL as analyte
[4] = biological target: T2, recombinant GST-SNAP25FL; assay: BLI (Octet Red96), IgG on AMC biosensor, GST-SNAP25FL as analyte; Kdis is the instrument's lowest limit, tentatively given
[5] = biological target: T3, recombinant GST-SNAP25197 (UniProt P60880 1-197); assay: direct ELISA; ratio of A450 with SNAP25197 to A450 with SNAP25FL
T3 construct: range 1-197; also called BoNT/A-cleaved form of SNAP25
T3 sequence (P60880 1-197 limits assumed): as the sequence (P60879 1-197 limits assumed) above

[6] = biological target: T2, recombinant GST-SNAP25FL; assay: BLI (Octet Red96), IgG on AMC biosensor, GST-SNAP25FL as analyte; remark: listed apart in the source
[7] = biological target: T3, recombinant GST-SNAP25197; assay: BLI (Octet Red96), IgG on AMC biosensor, GST-SNAP25197 as analyte
[8] = biological target: T3, recombinant GST-SNAP25197
[9] = biological target: T3, recombinant GST-SNAP25197; assay: BLI (Octet Red96), IgG on AMC biosensor, GST-SNAP25197 as analyte; remark: listed apart in the source
[10] = biological target: T3, recombinant GST-SNAP25197; remark: listed apart in the source
[11] = biological target: T1, endogenous SNAP25197 in total cell …; assay: sandwich ELISA on lysate of BoNT/A-treated N2-42F cells

B1: B4 IgG (antibody, V domains shown)
VH: EVKLVESGGGLVKPGGSLKLSCAASGFTFSNYGMSWVRQTPEKRLEWVATISSGGSYTYYPDSVKGRFTISRDNAKNTLYLQMSSLRSEDTAMYYCARHEGGGNPYFDYWGQGTTLTVSS
VL: DVLMTQTPLSLPVSLGDQASISCRSSQSLVHSNGNTYLHWYLQKPGQSPKLLIYKVSNRFSGVPDRFSGSGSGTDFTLKISRVEAEDLGVYFCSQNTLVPWTFGGGTKLEIK
notes: also called B4 IgG1; clone 4
With B1 the binding result [1] was “binds”, the Kd [2] was at most 0.1 pM and the kon [3] was 95100 M⁻¹ s⁻¹. It also gave a koff [4] of at most 1e-07 s⁻¹ and a Ratio197/206 [5] of 0.83.

B2: D3 IgG (antibody, V domains shown)
VH: EVQLEESGGGLVQPGGSLKLSCAASGFTFSNYGMSWVRQTPDKRLELVATINSNGGTTYYPDSVKGRFTISRDNAKNTLYLQMSSLKSEDSAMYYCARDRDAMDYWGQGTSVTVSS
VL: B1 VL with L29I, H31N, N33H, H39E, F92Y, S94F, N96G, T97S, L98H
In the case of B2, the binding result [6] is reported as “no binding (tested: up to 1 µM)”, the kon [7] is reported as 111000 M⁻¹ s⁻¹ and the Ratio197/206 [5] is reported as 12.9. The Kd [8] was at most 0.9 pM and the koff [8] was at most 1e-07 s⁻¹.

B3: D6 IgG (antibody, V domains shown)
VH: EVQLQQSGPELVKPGASVKISCKASGYTFTDYNMHWVKQSHGKSLEWIGYIYPYNGDTGYNQKFKSKATLTVDNSSSTAYMELRSLTSEDSAVYYCVRSGDYWGQGTTLTVSS
VL: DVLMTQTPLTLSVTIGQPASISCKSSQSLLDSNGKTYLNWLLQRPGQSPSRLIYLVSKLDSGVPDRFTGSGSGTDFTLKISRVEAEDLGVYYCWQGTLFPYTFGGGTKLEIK
For B3, the Kd [2] was at most 2.84 pM, the kon [3] was 35200 M⁻¹ s⁻¹ and the koff [4] was at most 1e-07 s⁻¹. For the same binder, the Ratio197/206 [5] was 0.02 and the binding result [9] was “no binding”.

B4: B23 IgG (antibody, V domains shown)
VH: EVQLQQSGAELVRPGASVKLSCTASGINIKDYYMHWMKQRPEQDLEWIGWIDPGNGDAEYAPKFQGKATMTADTSSNTAYLQLSSLTSEDTAVYYCNEIAYWGQGTLVTVSA
VL: not shown
notes: also called B23 IgG1
Binder B4 has a Kd [2] of at most 0.1 pM, a kon [3] of 95800 M⁻¹ s⁻¹ and a koff [4] of at most 1e-07 s⁻¹. The kon [7] was 25400 M⁻¹ s⁻¹, the Ratio197/206 [5] was 0.92 and the Kd [8] was at most 3.27 pM. For the same binder, the koff [8] was at most 1e-07 s⁻¹.

B5: C4 IgG (antibody, V domains shown)
VH: DVKLQESGPGLVKPSQSLSLTCTVTGYSITSDYAWNWIRQFPGNKLEWMGYISYSVGTRYNPSLKSRISITRDTSKNQFFLLLKSVTNEDTATYFCARKGEYGFAYWGQGTLVTVSA
VL: DIVMTQSPASLAVSLGQRATISCRASKSVSTSGYSYMHWYQQKPGQPPKLLIYLASNLESGVPARFSGSGSGTDFTLNIHPVEEEDAATYYCQHSRELPLTFGAGTKLELK
B5 was tested, and the binding result [6] was “no binding (tested: up to 1 µM)”, the kon [7] was 92800 M⁻¹ s⁻¹ and the Ratio197/206 [5] was 919. For the same binder, the Kd [8] was 1.07 pM, the koff [8] was 1e-07 s⁻¹ and the Kd [10] was 6530 pM and 17800 pM. The koff [10] was 0.00148 s⁻¹ and 0.0041 s⁻¹ and the kon [10] was 230000 M⁻¹ s⁻¹ and 227000 M⁻¹ s⁻¹.

B6: C16 IgG-HRP conjugate (antibody, V domains shown)
VH: EVQLQQSGAELARPGASVQMSCKAFGYTFTNYTMHWVRQRPGQGLEWIGFINPSSDYTNYNQKFKDKATLSADKSSSTAYMQLSSLTSEDSAVYYCARRIFYNGRTYAAMDYWGQGTSVTVSS
VL: B5 VL with T31S
notes: also called C16-HRP; Cg16 IgG-HRP conjugates
B6: binds [11].

B7: C16 IgG (antibody, V domains shown)
VH: B6 VH
VL: B5 VL with T31S
notes: also called C16 IgG1
In the case of B7, the binding result [6] is reported as “no binding (tested: up to 1 µM)”, the Kd [7] is reported as 1.62 pM and the koff [7] is reported as 2.57e-06 s⁻¹. For the same binder, the kon [7] was 1.6e+06 M⁻¹ s⁻¹, the Ratio197/206 [5] was 996 and the Kd [10] was 6440 pM and 9170 pM. The koff [10] was 0.00152 s⁻¹ and 0.00215 s⁻¹ and the kon [10] was 236000 M⁻¹ s⁻¹ and 235000 M⁻¹ s⁻¹.

B8: C7 IgG (antibody, V domains shown)
VH: QVQLVETGGGLVQPKGSLKLSCAASGFTFNTNAMNWVRQAPGKGLEWVARIRSKSNNYATYYADSVKDRFTISRDDSQSLLYLQMNNLKTEDTAMYYCVYGRSYGGLSYWGQGTLVTVSA
VL: B5 VL with T31S
notes: also called C7 IgG2a
For B8, the binding result [6] was “no binding (tested: up to 1 µM)”, the kon [7] was 77800 M⁻¹ s⁻¹ and the Ratio197/206 [5] was 1040. For the same binder, the Kd [8] was 1.28 pM, the koff [8] was 1e-07 s⁻¹ and the kon [10] was 277000 M⁻¹ s⁻¹ and 257000 M⁻¹ s⁻¹.

B9: C24 IgG (antibody, V domains shown)
VH: EVKLVESGGGLVQPKGSLKLSCAASGYTFNTYAMNWVRQAPGKGLEWVARIRSKSNNYTTYYADSVKDRFTISRDDSQSMLYLQINNLKTEDTAMYYCVGQILYYYVGSPAWFAYWGQGTLVTVSA
VL: B5 VL with Y53F, L100W, A104G, L110I
B9 was tested, and the binding result [6] was “no binding (tested: up to 1 µM)”, the kon [7] was 86800 M⁻¹ s⁻¹ and the Ratio197/206 [5] was 973. For the same binder, the Kd [8] was 1.15 pM, the koff [8] was 1e-07 s⁻¹ and the Kd [10] was 9620 pM and 5250 pM. The koff [10] was 0.00509 s⁻¹ and 0.00241 s⁻¹ and the kon [10] was 529000 M⁻¹ s⁻¹ and 458000 M⁻¹ s⁻¹.

B10: C14 IgG (antibody, V domains shown)
VH: B8 VH with Q1E, Q3K, T7S, N56D, Q78P, L80M, S108G
VL: B5 VL with M4L, M37V
For B10, the binding result [6] was “no binding (tested: up to 1 µM)”, the kon [7] was 76700 M⁻¹ s⁻¹ and the Ratio197/206 [5] was 953. The Kd [8] was at most 1.3 pM and the koff [8] was at most 1e-07 s⁻¹.

B11: D2 IgG (antibody, V domains shown)
VH: DVKLQESGPGLVKPSQSLSLTCSVTGYSITSGYYWNWIRQFPGNKLEWMGYIRYDGSNNYNPSLKNRISITRDTSKNQFFLKLNSVTTEDTASYYCARDRDSSYYFDYWGQGTALTVSS
VL: DIVMTQSSSYLSVSLGGRVTITCKASDHINNWLAWYQQKPGNAPRLLISDTTSLETGVPSRFSGSGSGKDYTLSITSLQTEDVATYYCQQYWSAPPTFGGGTKLEIK
With B11 the Kd [2] was at most 0.61 pM, the kon [3] was 164000 M⁻¹ s⁻¹ and the koff [4] was at most 1e-07 s⁻¹. The Ratio197/206 [5] was 0.03 and the binding result [9] was “no binding”.
